The results in this text go back to US6312887, “Method of using a crystal of the N-terminal domain of a signal transducer and activator of transcription” (The Rockefeller University).

This series has as its target STAT-1alpha wild type (Tyr-phosphorylated) (Homo sapiens, UniProt P42224 P42224:2-750). Put plainly: EMSA. The settings on record: tags: in vitro Tyr-phosphorylated with EGF-receptor kinase; chain copies: 4 on tandem site (two dimers), stated; 2 on single site; label: radiolabel. As to the method: Both protein preparations (Tyr-phosphorylated wild type STAT-1α and W37A mutant) were titrated in gel shift experiments with an oligonucleotide containing a single M67 site (5'-GCCGAT TTCCCGTAAATCAT-3', SEQ ID NO:5) [Wagner et al., *EMBO J.* 9:4477 (1990)] to assure similar loading of active protein. A 12.5 μl reaction volume contained DNA binding buffer (20 mM Hepes/HCl, 4% Ficoll, 40 mM KCl, 10 mM MgCl_2, 10 mM CaCl_2, 1 mM DTT) radiolabelled DNA at a final concentration of 1×10^-10 M unless stated otherwise, 50 ng dIdC, 0.2 mg/ml BSA (Boebringer Mannheim), and the indicated amount of purified phosphorylated STAT protein. The reaction volume was mixed and then incubated at room temperature. The time necessary to reach equilibrium was assessed by EMSA [(Stone et al., in Jost, J.P. & Saluz, H.P. (eds) *A Laboratory Guide to In Vitro Studies of Protein-DNA Interactions* BioMethods, vol.5:163–195 (1991)]. For all DNA fragments tested, equilibrium turned out to be fully established at the earliest timepoint that can be determined by this technique (30 sec). Therefore incubation periods of 5–15 minutes were chosen. Reaction products were loaded onto a 4% polyacrylamide gel (1.5 mm thick) containing 0.25×Tris-borate-EDTA which had been pre-run at 20V/cm for 2 hours at 4° C. Electrophoresis was continued for 60 minutes at 4° C. […]

Sequence of STAT-1alpha wild type (Tyr-phosphorylated) (P42224 2-750, one chain of several): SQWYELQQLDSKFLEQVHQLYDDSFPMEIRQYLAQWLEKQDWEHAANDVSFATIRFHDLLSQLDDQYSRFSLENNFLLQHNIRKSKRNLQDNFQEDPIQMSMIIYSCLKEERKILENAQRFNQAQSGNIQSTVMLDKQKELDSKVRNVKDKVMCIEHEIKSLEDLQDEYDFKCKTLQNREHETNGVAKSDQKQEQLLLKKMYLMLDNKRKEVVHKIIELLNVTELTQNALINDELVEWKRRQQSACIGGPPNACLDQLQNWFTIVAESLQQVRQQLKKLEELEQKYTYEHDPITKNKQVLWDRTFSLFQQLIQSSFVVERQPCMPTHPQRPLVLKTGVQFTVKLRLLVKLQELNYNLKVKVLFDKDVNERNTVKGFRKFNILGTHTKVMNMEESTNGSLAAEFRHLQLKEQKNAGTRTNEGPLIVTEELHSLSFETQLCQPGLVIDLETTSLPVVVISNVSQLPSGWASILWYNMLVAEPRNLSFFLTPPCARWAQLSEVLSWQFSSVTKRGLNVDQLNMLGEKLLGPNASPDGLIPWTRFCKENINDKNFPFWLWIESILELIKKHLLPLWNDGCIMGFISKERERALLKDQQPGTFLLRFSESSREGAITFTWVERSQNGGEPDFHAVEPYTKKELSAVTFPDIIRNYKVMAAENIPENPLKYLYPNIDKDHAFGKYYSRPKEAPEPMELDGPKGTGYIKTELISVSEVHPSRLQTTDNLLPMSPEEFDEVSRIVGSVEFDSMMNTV

B1: tandem c-fos STAT recognition element, 10 bp spacing (dsDNA)
DNA 1: GCCAGTCAGTTCCCGTCAATGCATCAGGTTCCCGTCAATGCAT
DNA 2: ATGCATTGACGGGAACCTGATGCATTGACGGGAACTGACTGGC
On to B1, for which the binding result was “binds”.
